Measured values: US20170082633A1 (WHITEHEAD INSTITUTE FOR BIOMEDICAL RESEARCH, published 2017)

Columns and labels:
[1] = target: endogenous Ragulator (UniProt Q6IAA8 2-161; Q9Y2Q5 1-125; Q9UHA4 1-124; Q0VGL1 1-99; O43504 1-91); test: anti-FLAG co-immunoprecipitation from HEK-293T cells, immunoblot
Method: (§1) HEK-293T cells were cultured in DMEM supplemented with 10% inactivated fetal bovine serum, penicillin (100 IU/mL), and streptomycin (100 μg/mL) and maintained at 37° C. and 5% CO₂. Two million HEK-293T cells were plated in 10 cm culture dishes.
(§2) Transfection mixes were taken up to a total of 5 μg of DNA using empty pRK5. HEK-293T cells stably expressing FLAG-tagged proteins were rinsed once with ice-cold PBS and lysed in ice-cold lysis buffer (40 mM HEPES pH 7.4, 1% Triton X-100, 10 mM β-glycerol phosphate, 10 mM pyrophosphate, 2.5 mM MgC12 and 1 tablet of EDTA-free protease inhibitor (Roche) per 25 ml buffer). The soluble fractions from cell lysates were isolated by centrifugation at 13,000 rpm for 10 min in a microcentrifuge. […] Immunoprecipitates were washed three times with lysis buffer containing 500 mM NaCl. Immunoprecipitated proteins were denatured by the addition of 50 μL of sample buffer and incubation at RT for 30 min. It is critical that the samples containing SLC38A9 are neither boiled nor frozen prior to resolution by SDS-PAGE and analysis by immunoblotting. A similar protocol was employed when preparing samples for mass spectrometry.

[2] = target: T1, endogenous p18 (UniProt Q6IAA8 2-161); test: FLAG IP from HEK-293T cells stably expressing the bait, immunoblot
T1 construct: Detected by immunoblot in anti-FLAG immunoprecipitates; also called LAMTOR1
Method: as §2

[3] = target: T2, endogenous RagC (UniProt Q9HB90 2-399); test: as above
T2 construct: Detected by immunoblot in anti-FLAG immunoprecipitates; also called RagC GTPase
T2 sequence (Q9HB90 2-399 limits assumed): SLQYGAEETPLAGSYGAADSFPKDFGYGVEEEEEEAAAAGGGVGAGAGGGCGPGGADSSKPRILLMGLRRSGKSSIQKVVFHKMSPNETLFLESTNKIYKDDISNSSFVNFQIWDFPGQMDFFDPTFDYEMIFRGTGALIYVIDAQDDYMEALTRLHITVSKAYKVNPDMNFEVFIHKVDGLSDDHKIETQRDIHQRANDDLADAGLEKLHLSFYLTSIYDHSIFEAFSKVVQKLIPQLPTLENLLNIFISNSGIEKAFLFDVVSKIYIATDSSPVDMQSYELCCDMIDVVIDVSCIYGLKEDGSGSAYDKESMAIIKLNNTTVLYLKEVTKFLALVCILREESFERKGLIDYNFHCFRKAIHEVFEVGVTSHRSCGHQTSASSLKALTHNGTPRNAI
Method: as §2

[4] = target: T3, endogenous RagA (UniProt Q7L523 1-313); test: FLAG IP from transfected HEK-293T cells, immunoblot
T3 construct: Detected by immunoblot in anti-FLAG immunoprecipitates; also called RagA GTPase
T3 sequence (Q7L523 whole entry): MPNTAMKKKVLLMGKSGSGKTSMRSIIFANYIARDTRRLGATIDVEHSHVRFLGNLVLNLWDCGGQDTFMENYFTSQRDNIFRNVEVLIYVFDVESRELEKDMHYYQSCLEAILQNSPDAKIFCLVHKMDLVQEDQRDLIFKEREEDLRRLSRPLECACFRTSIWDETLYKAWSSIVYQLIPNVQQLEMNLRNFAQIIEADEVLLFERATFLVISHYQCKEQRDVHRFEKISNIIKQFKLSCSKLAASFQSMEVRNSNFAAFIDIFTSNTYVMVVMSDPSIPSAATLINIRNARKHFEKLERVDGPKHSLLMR
Method: as §1, §2

[5] = target: co-expressed epitope tagged Ragulator proteins (UniProt Q6IAA8 2-161; Q9Y2Q5 1-125; Q9UHA4 1-124; Q0VGL1 1-99; O43504 1-91); test: FLAG IP (FLAG-p14) from HEK-293T cells co-transfected with the HA-tagged Ragulator components and HA-SLC38A9.4; immunoblot

Row | binding result [1] | binding result [2] | binding result [3] | binding result [4] | binding result [5] | Binder
1 | binds | binds | binds | binds |  | FLAG-N-terminal 119 fragment of SLC38A9.1 (other) DYKDDDDKMANMNSDSRHLGTSEVDHERDPGPMNIQFEPSDLRSKRPFCIEPTNIVNVNHVIQRVSDHASAMNKRIHYYSRLTTPADKALIAPDHVVPAPEECYVYSPLGSAYKLQSYTEGYGKNTS
2 | binds |  |  |  |  | FLAG-SLC38A9.1 (other, Lysosomal membrane amino acid transporter, expressed in HEK-293T cells and immunoprecipitated from Triton X-100 lysate with anti-FLAG gel; also called SLC38A9 isoform 1; full-length SLC38A9) DYKDDDDKMANMNSDSRHLGTSEVDHERDPGPMNIQFEPSDLRSKRPFCIEPTNIVNVNHVIQRVSDHASAMNKRIHYYSRLTTPADKALIAPDHVVPAPEECYVYSPLGSAYKLQSYTEGYGKNTSLVTIFMIWNTMMGTSILSIPWGIKQAGFTTGMCVIILMGLLTLYCCYRVVKSRTMMFSLDTTSWEYPDVCRHYFGSFGQWSSLLFSLVSLIGAMIVYWVLMSNFLFNTGKFIFNFIHHINDTDTILSTNNSNPVICPSAGSGGHPDNSSMIFYANDTGAQQFEKWWDKSRTVPFYLVGLLLPLLNFKSPSFFSKFNILGTVSVLYLIFLVTFKAVRLGFHLEFHWFIPTEFFVPEIRFQFPQLTGVLTLAFFIHNCIITLLKNNKKQENNVRDLCIAYMLVTLTYLYIGVLVFASFPSPPLSKDCIEQNFLDNFPSSDTLSFIARIFLLFQMMTVYPLLGYLARVQLLGHIFGDIYPSIFHVLILNLIIVGAGVIMACFYPNIGGIIRYSGAACGLAFVFIYPSLIYIISLHQEERLTWPKLIFHVFIIILGVANLIVQFFM
3 |  |  |  |  | no binding | HA-SLC38A9.4 (other, also called HA-tagged SLC38A9 isoform 4) single chain: LVTIFMIWNTMMGTSILSIPWGIKQAGFTTGMCVIILMGLLTLYCCYRVVKSRTMMFSLDTTSWEYPDVCRHYFGSFGQWSSLLFSLVSLIGAMIVYWVLMSNFLFNTGKFIFNFIHHINDTDTILSTNNSNPVICPSAGSGGHPDNSSMIFYANDTGAQQFEKWWDKSRTVPFYLVGLLLPLLNFKSPSFFSKFNILGTVSVLYLIFLVTFKAVRLGFHLEFHWFIPTEFFVPEIRFQFPQLTGVLTLAFFIHNCIITLLKNNKKQENNVRDLCIAYMLVTLTYLYIGVLVFASFPSPPLSKDCIEQNFLDNFPSSDTLSFIARIFLLFQMMTVYPLLGYLARVQLLGHIFGDIYPSIFHVLILNLIIVGAGVIMACFYPNIGGIIRYSGAACGLAFVFIYPSLIYIISLHQEERLTWPKLIFHVFIIILGVANLIVQFFM
